Where two headings read alike, the source gives them in different places. Non-standard residues stand in square brackets, D forms with d. Residues, ends and D or L forms follow the SMILES beside them. No end group written: not given here.
Key:
[1] = system: SHSY-5Y neuroblastoma cells; assay: LDH assay, protection against Aβ42-mediated toxicity; format: cell-based; conditions: 5 μM Aβ42 plus 0.1-10 μM peptide, 24 h
Method: For cell toxicity assays (Example 3), SHSY-5Y neuroblastoma cells were maintained in 10% Fetal Calf Serum supplemented Dulbecco's Modified Eagle Medium (DMEM, Gibco) under standard mammalian cell culture conditions. The cells were transferred to sterile 96-well growth plates at 20,000 cells/well and 4 wells per condition. To test for any toxic effects of RI-OR2-TAT alone on the cells, they were left to adhere for 24 h before the addition of the inhibitor (at 12.5, 25, 50, 100 and 200 μM), in DMEM. To look at the ability of RI-OR2-TAT to protect against Aβ toxicity, the cell growth medium was changed to Optimem (Invitrogen) and Aβ42, pre-aggregated (at 100 μM) for 24 h at 25° C. in PBS, was added to the cells at a concentration of 5 μM, together with various amounts (0, 0.1, 0.5, 1, 5 or 10 μM) of RI-OR2-TAT. In each case, after a further 24 h incubation period, the viability of the cells was assessed using a CytoTox 96® Non-Radioactive Cytotoxicity Assay (LDH) Assay (Promega) kit.

Aβ42 = target: T1, Aβ42 (Homo sapiens, UniProt P05067); assay: Thioflavin T (ThT) assay for Aβ fibrils; format: biochemical; conditions: for % of control: Aβ alone = 100
T1 construct: Recombinant Aβ42, Ultrapure, was purchased from rPeptide, Bogart, Ga., USA; purchased rPeptide, Bogart, Ga., USA
T1 sequence (P05067 672-713 limits assumed): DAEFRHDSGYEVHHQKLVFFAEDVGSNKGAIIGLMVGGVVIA
Method: This method was the same as that published previously. Briefly, 60 μl samples of solutions containing Aβ42 (25 μM), ThT (15 μM) and between 0 and 125 μM RI-OR2 or RI-OR2-TAT, in 10 mM phosphate buffered saline (PBS), pH 7.4, were incubated in sealed, black, clear-bottomed 384-well plates (Corning). ThT fluorescence was monitored every 10 mins (λex=442 nm, λem=483 nm) for 48 h at 30° C. in a Biotek Synergy 2 plate reader.

Aβ42 fibrils = target: T2, Aβ42 fibrils (Homo sapiens, UniProt P05067); assay: Surface plasmon resonance binding to immobilized Aβ42 fibrils
T2 construct: purchased rPeptide, Bogart, Ga., USA
T2 sequence (P05067 672-713 limits assumed): as above
From the text: SPR (Surface Plasmon Resonance) is a technique that can be used to measure the affinity of a substance for a substrate. The substrate (in this case Aβ fibrils) is bound to a solid surface and excited using a laser light source. The compound to be tested (e.g. PINPs) is allowed to flow over the bound substrate in suspension/solution and the emission spectra of the substrate will change if the compound binds. A second solution, without the test compound, can then added to elute any bound compound and the emission spectra may be observed to note loss of bound compound from the substrate. For a specific example regarding peptide binding to Aβ see reference (30).
In the examples presented here, The substance is introduced at a flow rate of 30 uL/min for 5 minute over the immobilized substrate. There is a spike in the signal which is due to the introduction of solvent without PINPs to show removal of the peptide bound to the Aβ fibrils. There are two plots related to addition of peptide at two different concentrations, 1 and 3 μM, plus a computer generated fitted curve for each one.
These experiments were conducted using a Sensi Q semi-automatic SPR machine (ICx Nomadics). This apparatus has two parallel flow cells; one was used to immobilize Aβ42 fibrils while the other was used as “reference” (empty surface). A COOH5 sensor chip (ICx Nomadics) was employed for this purpose and the peptide was immobilized by amine coupling chemistry. Briefly, after surface activation, the peptide preparation was diluted to 10 μM in acetate buffer (pH 4.0) and then injected for 5 min at a flow rate of 30 μL/min. Any remaining activated groups were blocked with ethanolamine (pH 8.0). The final immobilization level was ˜5,000 resonance units (1 RU=1 pg of protein/mm^2). The empty “reference” surface was prepared in parallel using the same immobilization procedure, but without addition of the peptide. Sensorgrams were then obtained via injection of three different concentrations of RI-OR2-TAT (1, 3 and 6 μM), as well as the vehicle (PBS with 0.005% Tween 20), over the immobilized ligand or control surface, in parallel.
These experiments were conducted using a Sensi Q semi-automatic SPR machine (ICx Nomadics). This apparatus has two parallel flow cells; one was used to immobilize Aβ(1-42) fibrils (see Aβ peptides) while the other was used as “reference” (empty surface). A COOH5 sensor chip (ICx Nomadics) was employed for this purpose and the peptide was immobilized by amine coupling chemistry. Briefly, after surface activation, the peptide preparations was diluted to 10 μM in acetate buffer (pH 4.0) and then injected for 5 min at a flow rate of 30 μL/min. Any remaining activated groups were blocked with ethanolamine (pH 8.0). The final immobilization level was 5000 resonance units (1 RU=1 pg of protein/mm^2). The empty “reference” surface was prepared in parallel using the same immobilization procedure, but without addition of the peptide. Sensorgrams were then obtained via injection of two different concentrations of RI-OR2 TAT/peptide liposome (1 and 3 μM), as well as the vehicle (PBS with 0.005% Tween 20), over the immobilized ligand or control surface, in parallel, at the same time.

[2] = read-out: Kd, binding to Aβ fibrils

CC(=O)N[C@H](CCCNC(=N)N)C(=O)NCC(=O)N[C@H](Cc1ccccc1)C(=O)N[C@H](Cc1ccccc1)C(=O)N[C@@H](C(=O)N[C@H](CC(C)C)C(=O)N[C@H](CCCCN)C(=O)NCC(=O)N[C@H](CCCNC(=N)N)C(=O)N[C@H](CCCNC(=N)N)C(=O)N[C@H](CCCNC(=N)N)C(=O)N[C@H](CCCNC(=N)N)C(=O)N[C@H](CCC(N)=O)C(=O)N[C@H](CCCNC(=N)N)C(=O)N[C@H](CCCNC(=N)N)C(=O)N[C@H](CCCCN)C(=O)N[C@H](CCCCN)C(=O)N[C@H](CCCNC(=N)N)C(=O)NCC(=O)N[C@H](Cc1ccc(O)cc1)C(N)=O)C(C)C [RI-OR2-TAT, Ac-rGffvlkGrrrrqrrkkrGy-NH2] (Ac-[dR]G[dF][dF][dV][dL][dK]G[dR][dR][dR][dR][dQ][dR][dR][dK][dK][dR]G[dY]-NH2)
effect on Aβ42 toxicity to cells [1]: inhibits the toxic effects of Aβ42 | ThT fluorescence (Aβ42; 48 h incubation of Aβ42, molar ratios 1:1, 1:2, 1:4 and 1:10 (inhibitor:Aβ42)): lower fluorescence | increase in affinity of binding to Aβ fibrils compared to RI-OR2 (Aβ42 fibrils): approximately 1000 fold | koff (Aβ42 fibrils; Example 2, 1, 3 and 6 μM): 0.00037 ± 1.5e-08 s⁻¹ | kon (Aβ42 fibrils; Example 2, 1, 3 and 6 μM): 3680 ± 615 M⁻¹ s⁻¹ | Kd (Aβ42 fibrils; Example 2, Langmuir 1:1 interaction model, read-out: calculated apparent affinity value (Kd)): 58 to 125 nM | binding affinity for Aβ42 fibrils relative to RI-OR2 (Aβ42 fibrils; Example 2, versus Kd=9.5 μM): ~100 fold | binding affinity relative to peptide without TAT (Aβ42 fibrils; Example 7): approximately 1000 times | Kd (Aβ42 fibrils; Example 7, 1 and 3 μM, read-out: Kd, binding to Aβ fibrils): 15 to 75 nM | Kd (Aβ42 fibrils; [2]): 41 to 75 nM

PINPs: RI-OR2-TAT covalently attached to nanoliposomes (cholesterol:sphingomyelin [1:1] with 2.5% maleimide) via an additional cysteine (Ac-[dR]G[dF][dF][dV][dL][dK]G[dR][dR][dR][dR][dQ][dR][dR][dK][dK][dR]G[dY][dC]; not fully specified (residue 21); also: C-terminal D-Cys coupled via its thiol to maleimide lipid of nanoliposome)
reduction in aggregate formation (Aβ42; 1:50 molar ratio of PINPS:Aβ, 48 hours, Aβ1-42 25 μM): ~50% | ThT signal by 48 hours (Aβ42; 1:500 molar ratio of PINPs (total lipids):Aβ): below that of Aβ1-42 alone | RFU at 48 hours (Aβ42; 1 to 1 PINPS (total lipids):Aβ, Aβ1-42 25 μM): 13817 RFU | % of control (Aβ42; 1 to 1 PINPS:Aβ, 48 hours): 7.1% | RFU at 48 hours (Aβ42; 1 to 5 PINPS (total lipids):Aβ, Aβ1-42 25 μM): 14450 RFU | % of control (Aβ42; 1 to 5 PINPS:Aβ, 48 hours): 7.4% | RFU at 48 hours (Aβ42; 1 to 10 PINPS (total lipids):Aβ, Aβ1-42 25 μM): 15664 RFU | % of control (Aβ42; 1 to 10 PINPS:Aβ, 48 hours): 8.1% | RFU at 48 hours (Aβ42; 1 to 50 PINPS (total lipids):Aβ, Aβ1-42 25 μM): 85107 RFU | % of control (Aβ42; 1 to 50 PINPS:Aβ, 48 hours): 44.0% | RFU at 48 hours (Aβ42; 1 to 100 PINPS (total lipids):Aβ, Aβ1-42 25 μM): 132977 RFU | % of control (Aβ42; 1 to 100 PINPS:Aβ, 48 hours): 68.8% | RFU at 48 hours (Aβ42; 1 to 500 PINPS (total lipids):Aβ, Aβ1-42 25 μM): 165060 RFU | % of control (Aβ42; 1 to 500 PINPS:Aβ, 48 hours): 85.5% | RFU at 48 hours (Aβ42; 1 to 1000 PINPS (total lipids):Aβ, Aβ1-42 25 μM): 171555 RFU | % of control (Aβ42; 1 to 1000 PINPS:Aβ, 48 hours): 88.8% | RFU at 48 hours (Aβ42; 1 to 5000 PINPS (total lipids):Aβ, Aβ1-42 25 μM): 148012 RFU | % of control (Aβ42; 1 to 5000 PINPS:Aβ, 48 hours): 76.6% | RFU at 48 hours (Aβ42; 1 to 10000 PINPS (total lipids):Aβ, Aβ1-42 25 μM): 204059 RFU | % of control (Aβ42; 1 to 10000 PINPS:Aβ, 48 hours): 105% | RFU at 48 hours (Aβ42; 1 to 50000 PINPS (total lipids):Aβ, Aβ1-42 25 μM): 199514 RFU | % of control (Aβ42; 1 to 50000 PINPS:Aβ, 48 hours): 103% | RFU at 48 hours (Aβ42; 1 to 100000 PINPS (total lipids):Aβ, Aβ1-42 25 μM): 188616 RFU | % of control (Aβ42; 1 to 100000 PINPS:Aβ, 48 hours): 97.0% | Kd (Aβ42 fibrils; [2]): 14 to 44 nM

Reference: patent US9579358B2, “Compositions for binding to amyloid proteins” (LANCASTER UNIVERSITY BUSINESS ENTERPRISES LIMITED, priority 2011, dated 2017)
